From paper PMC9461429

Molecular target: Human SARS-CoV-2_Wuhan S (SmT1), C-terminally fused to the resistin trimerization domain (SARS-CoV-2 (Wuhan-Hu-1) | not stated)
Test: SPR

Chain of Human ACE2 (aa18-615), His6-tagged monomeric ACE2 (Q9BYF1 18-615): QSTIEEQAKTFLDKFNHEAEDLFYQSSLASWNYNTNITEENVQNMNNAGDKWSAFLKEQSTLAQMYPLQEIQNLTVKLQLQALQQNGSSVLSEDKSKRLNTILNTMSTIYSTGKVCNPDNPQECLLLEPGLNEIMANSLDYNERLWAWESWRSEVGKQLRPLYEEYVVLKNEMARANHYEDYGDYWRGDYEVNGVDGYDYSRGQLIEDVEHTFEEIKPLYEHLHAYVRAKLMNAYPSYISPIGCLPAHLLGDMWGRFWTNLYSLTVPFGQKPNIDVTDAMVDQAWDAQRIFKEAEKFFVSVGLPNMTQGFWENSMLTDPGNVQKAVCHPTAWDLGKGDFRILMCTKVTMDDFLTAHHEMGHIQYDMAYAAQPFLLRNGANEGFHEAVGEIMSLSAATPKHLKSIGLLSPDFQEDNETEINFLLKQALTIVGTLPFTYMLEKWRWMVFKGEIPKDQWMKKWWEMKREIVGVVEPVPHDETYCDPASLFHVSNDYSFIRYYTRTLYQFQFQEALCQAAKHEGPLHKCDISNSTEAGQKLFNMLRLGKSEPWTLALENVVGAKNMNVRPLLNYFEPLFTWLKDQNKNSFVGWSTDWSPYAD

Q: How did the Kd turn out when “Human ACE2 (aa18-615), His6-tagged monomeric ACE2 (from UniProt Q9BYF1-1 18-615) (receptor)” was run?
A: Its Kd is 165 nM.
